The source of these data is the DeepSol protein solubility set.

The data set in a line: soluble on expression in E. coli; label from the status in PepcDB or PDB records.
Regarding “MAHHHHHHMMRLLRNNVKNMFLKNCFLVRNTNVKCWRTDRFHNYNMWNTVENNGIRGFSSSSFEEIKKMNMFTAINSAMHNVFESNPNSVLLGEDVAFGGVFRCSLDLLKKYGNMRVFNTPLCEQGIIGFAIGLAENGFTTIAEIQFGDYIFPAFDQIVNDVAKYRYRSGSSFDVGKLTIRSTWGAVGHGGLYHSQSPEAFFAHAAGIKIIVPSDAYKAKGLLLSAINDPNPCLFFEPKILYRSSVCDVPTGPYQLELGKADVVRQGSDVTIVTWGSLVHKMKNAAEILSKKHNIECEVIDLQSIIPWDIETVQKSVEKTGRLLITHEAQLTNGFGAEIAAKIQERCFYNLHTPIKRVCGYDTPFPHVYEPFYMPDAHKVIYEVKKMMK”, the “soluble on expression in E. coli” value is reported as “not soluble”.

For the sequence “MLKLQTLQALICIEEVGSLRAAAQLLHLSQPALSAAIQQLEDELKAPLLVRTKRGVSLTSFGQAFMKHARLIVTESRRAQEEIGQLRGRWEGHITFAASPAIALAALPLALASFAREFPDVTVNVRDGMYPAVSPQLRDGTLDFALTAAHKHDIDTDLEAQPLYVSDVVIVGQRQHPMANATRLAELQECRWAFSSAPRGPGAIIRNAFARYGLPEPKLGLVCESFLALPGVVAHSDLLTTMPRTLYERNAFKDQLCSIPLQDALPNPTIYVLRRHDLPVTPAAAGLIRWIQHHALQTGHHHHHH”, the “soluble on expression in E. coli” value was “soluble”.

“RSFGLRASLVDALRKGKIQVAYQPLRVLDSGRMAGVEALARWTYDEVGPISPVTFLGWVEAMGLRQPFTRYIVQAALDGMKTRMAGDAPFYLSINVFPEDLEDESFLDFLTQSVRERELSPGSVVLEVTESAVFSTASPSVLFRRFRAAGFRIFLDDFGVGYSNLGNIIRWEVDGIKLDRIFMQSLGDFDSAAPVLDQVIEMARQLDLHLVIEGIEVRSQADYIFKRAPHAVGQGWLFGRPGPACALPAA”: the “soluble on expression in E. coli” value is reported as “not soluble”.

As for “MAASLGLAAAAASAWAQAPAMDHGSMPGMDHGAAPASAMDHGSMPGMDHGAAPAPAIGALPSSDGAGDQSYAAYGIHSHMMDDMATSQLLFDKLGMTYDRDRRTGLQWDGQFWVGRDLDKLWIKSEGERVGGRSDGKVEAFWNRTISPFWDLQVGARRDFGTGPKRNWGAIGLQGVAPYNIETEVTAYVGGSGRTALALKAEYDLLLTQRLVLTPEIEASVYGKDDKARGIGAGLSDASFSLRLRYEITREVAPYVGVSFGRKFGRTASYASEEGESRSERAIMAGVRIWFLEHHHHHH”, the “soluble on expression in E. coli” value is “not soluble”.

Consider “MGSDKIHHHHHHMILKTKLFGKVYQFTSVKEVLAKANEEKSGDKLAGVAANSAEERVAAKVVLSELSLNDLFNNPVVDYDEDEVTRIIIDQVNMRIFESIKHWTVAELREFILSSETTDFDIKRISRGLTSEMIAAVCKLMSNMDLIVGAKKINIEKTANTTIGRPGTFSNRLQPNHPTDNVDGIMASVMEGLSYGAGDALIGLNPVDDSTESVKRILNKFEEFRSEWEIPTQTCVLAHVTTQMEAMRQGAPTGLVFQSIAGSEKGNTAFGLNAEILAEAQDLALHSGQAAGPNVMYFETGQGSELSSEANFGADQVTMEARCYGLAKKFDPYIVNTVVGFIGPEYLYDSKQVIRAGLEDHFMGKLTGISMGCDVCYTNHMKADQNDMENLAMLLATAGCTYIMGIPHGDDVMLNYQTTGFHETATIRETLGLRPIKEFEEWMEKMGLMENGKLTSRAGDASVFIK”, for which the “soluble on expression in E. coli” value was “not soluble”.

Consider “MSQNHVIELANTLKQRPIVCDYTGGRFRLTNEGLTYIGIDRDGTPLPPRWICAPLHIVAKTRDAQSGEWGRLLEWQDDDGITHQWAMPLALLQGDASDVRRELARLGLSISPHRTARDLLASYLQVFPVDARARCVDKLGWHGDVFVTASQCIGQSTEKIVFQNTNAIEPAMSIKGSVDKWRDSIGRLASGNSRLVFAISVALAPVLAKIVGEDSGGFHFRGASSSGKSTALSLAASVWGNPQSYCRLWRSTTNGLEGLAALHNDGLLILDELSQMDPREAGEAAYLLANGQGKTRASRTGTVRQSSRWSLFFLSAGEESLTALMAKSGQRINAGQEIRLADIEADAGCQMGIFETIHDQLSPASMALSLKKYSSGYHGAIGRAWLNQVVANRQTISRFITDTIQSFVDIVIQPDATGQIIRVARRFALVAAAGELASQFGLTGWKKGESFHAAKTCFIAWQDAFGVDGHREDRAIMAQVRAFFESHGASRFDNVNSPNNDKILNRAGFYHTDGEGFRIYMVLTETYKNELCKGFDQRTVTRVLLQAGWLKPASDGKASHKPRIKGVGTPRLYVFTGKIWGGELEHHHHHH”, for which the “soluble on expression in E. coli” value is “soluble”.

Regarding “MGSDKIHHHHHHMVATLAEQIKAEAIALGFDKVGIASVDPPDTEALAALDRWLAQGYQAEMDWMASDRRRDVRNLLPNAQSVICVALNYYSGDHPDPSPEVGKIARYAWGRDYHRVVEKRLKALARWLQTQQPDCECRWYVDSGPIADKVWAQRAGLGWIAKNSNVISREFGSWIFLGELVTTLALPADRPHTAHCGSCSRCLEACPTQAIVEPYVVDANRCIAYHTIENRAADLPAAIAQNLQGWVAGCDICQEVCPWNQRFAQITTLPDLQPRSELLAPALAELATLSEEAWDQQFQGSALRRIKPAMWRRNSRANLRQQSEGNRLS”, the “soluble on expression in E. coli” value was “not soluble”.

Take “MGSDKIHHHHHHMKRQAKIEIQNALVDLMAEYPFQEISTKMICAYCNINRSTFYDYYKDKFDLLDTINSKHKEKFQFLLSALHHNFENIKQDKLKLYKFFIIIAKYIKHNEQFFKDILVTYPMKTLFIDYINLARDYYQQIMNDYSTTVTNKQLYVTYIIGGQAGVFINWLSNGCNESPEEVADILLANTIKLQIQ”: the “soluble on expression in E. coli” value is “not soluble”.

As to “MCMDRIEKLIKKVSKPARLSVERCRLYTESMKQTEGEPMIIRQAKALKHVLENIPIQILDSELIVGTMLPNPPGAIIFPEGVGLRIINELDSLPNRETNRLMVDEEDAKVLREEIAPYWQRKTIEAFAFPLMPDIMQILYTGSVFVLTEIAGISHVAVNYPYLLRRGFRWFLEESERRIRALEESGVYEGEKYSFYQAAKIVSEAVINYGLRYSKLAEELAESEDGERREELLKIAEICRKVPAEKPETFWEAVQFVWLVQSALHQENYEQAISMGRIDQYLYPFFKKDIGEGRINRELAFDILANLWIKTNEIVPAFDSLLEQYFSGQATNQAVTIGGCDIYGNDATNELTYLMLEVTDRLRLRQPNVHVRINKGSPESFLKRLAEAISSGCNNLALFFDDAAVKALKNAEVDDRDALNYTTDGCVEIAPFGNSFTSSDAALINVAKALEYALNEGVDLQFGYEFGAKTEKPKFLEDLLEKLREQVSHIVKLVVRGSNVLSYANAEVKPTPLLSLCVEDCFEKGVDVSRGGARYNFTGIQAVGIADVGDSLVAIEGALNAGYSMDDIVEACRKNFVGYEKLHKLLLQSPKYGNDDDAADKYTKMVLEWYCEEVNRHRNFRGGKFAAGCYPMTTNVGFGFFTSALPSGRKSGEPLNPGVSPSTGMDREGVTAVINSASKLSYENLPNGASLTINLSSDVLGEKGDAVIEALIKSSMELGVMHVQFNILKEDLLRKAQQEPEKYRWLLVRVAGWSAYFVELSRPVQEEVIRRISCRI”, the “soluble on expression in E. coli” value is “soluble”.

In the case of “SHMTDDKKKGKFIVFEGLDRSGKSTQSKLLVEYLKNNNVEVKHLYFPNRETGIGQIISKYLKMENSMSNETIHLLFSANRWEHMNEIKSLLLKGIWVVCDRYAYSGVAYSSGALNLNKTWCMNPDQGLIKPDVVFYLNVPPNYAQNRSDYGEEIYEKVETQKKIYETYKHFAHEDYWINIDATRKIEDIHNDIVKEVTKIKVEPEEFNFLWS”, the “soluble on expression in E. coli” value is on record as “soluble”.

In the case of “MGSDKIHHHHHHMTTPSETSPSRMNSTQAWVSYLSKVELPVLANTLRQINELTDSRNSTVNELANVILNDAQLTSQVLRLSNTVFYNQTRTQVSTVSRAITLIGFDAVKSMAISSLIVDSLLKRNDRPHLLRCLARAIHAAVQARCLMPKRTEHALEEVFIGALLMNIGELAFWSCETEQASELEERLRLEEPPVEAQKAVLHTTFTEITRGLVDAWSLGPFIKEVVAPGKANSMASSLVRNSVEMARVSENGWSGAEMDKVLEKLSDDIGETPAAIRDQLKVNAQEASKVAVSLGIPQVTALLPGNQESVPDAPAMDSDLQLQILRELTQTLAEKPDINEVCQLVIEGIHRAIGMQRVALLMTDRSGELLVPRKVGGRGTEEWREHFVIKKDGTGPLGPLLPHGTCAVYEPRKQTEGVPYDRWLGKVPALAGSLKAKGRLVGLFYADNAAAGYVPSEQQLAAFGHFIQNAQLCLTLMSARG”, the “soluble on expression in E. coli” value was “not soluble”.

Take “MGHHHHHHSHMSRPGHGGLMPVNGLGFPPQNVARVVVWEWLNEHSRWRPYTATVCHHIENVLKEDARGSVVLGQVDAQLVPYIIDLQSMHQFRQDTGTMRPVRRNFYDPSSAPGKGIVWEWENDGGAWTAYDMDICITIQNAYEKQHPWLDLSSLGFCYLIYFNSMSQMNRQTRRRRRLRRRLDLAYPLTVGSIPKSQSWPVGASSGQPCSCQQCLLVNSTRAASNAILASQRRKAPPAPPL”: the “soluble on expression in E. coli” value is “not soluble”.

“MGSDKIHHHHHHMRILYYDCFCGISGDMNLAALVDLGVPKKYLIDELLKLNLGSEYEIKIEKGQKLGITGTRVDVILKDEHHNKHELEEVLHNHEHKHNHHEIKNDEPAHSHEHHHRSLRDIEEIINSSTLNDKVKKLSLNIFMKVAEAEAKVHGRELYEVHFHEVGAVDSIVDIVGAAICIDYLKVDKILASRVQVGGGFVRCAHGIMPVPAPATVEILKNIPINTGIVQFETTTPTGAAILAANVKEFTQKLDFIIKKTAYGIGHRDLEIPNVLRVYLGEEESFQDIENQYILETNIDDMNPEIYGYVEEKLFKVGALDVFKTPICMKKGRPGIKLSVLTNEKSEREVLDVIFEETTSIGVRRYKVEKIMLKREFSKVKTEFGDITVKKAYYKGELVKYKPEYEECKDIAREKNVSIHKVYKAVYKQDLK”: the “soluble on expression in E. coli” value is “not soluble”.

Turning to “RAQRKMSAQSLPAATPPTQKPPRIIRPRPPSRSRAAQSPGPPHNGSSPQELPRNSNDAPTPMCTPIFWEPPAASLKPPALLPPSASRASLDSQTSPDSPSSTPTPSPVSRRSASPEPAPRSPVPPPKPSGSPCTPLLPMAGVLAQNGSASAPGTVRRLAGRFEGGAEGRAQDADAPEPGLQARADVNGEREAPLTGSGSQENGAPDAGLACPPCCPCVCHTTRPGLELRWVPVGGYEEVPRVPRRASPLRTSRSRPHPPSIGHPAVVLTSYRSTAERKLLPLLKPPKPTRVRQDATIFGDPPQPDLDLLSEDGIQTGDSPDEAPQNTPPATVEGREEEGLEVLKEQNWELPLQDEPLYQTYRAAVLSEELWGVGEDGSPSPANAGDAPTFPRPPGPRNTLWQELPAVQASGLLDTLSPQERRMQESLFEVVTSEASYLRSLRLLTDTFVLSQALRDTLTPRDHHTLFSNVQRVQGVSERFLATLLSRVRSSPHISDLCDVVHAHAVGPFSVYVDYVRNQQYQEETYSRLMDTNVRFSAELRRLQSLPKCERLPLPSFLLLPFQRITRLRMLLQNILRQTEEGSSRQENAQKALGAVSKIIERCSAEVGRMKQTEELIRLTQRLRFHKVKALPLVSWSRRLEFQGELTELGCRRGGVLFASRPRFTPLCLLLFSDLLLITQPKSGQRLQVLDYAHRSLVQAQQVPDPSGPPTFRLSLLSNHQGRPTHRLLQASSLSDMQRWLGAFPTPGPLPCSPDTIYEDCDCSQELCSESSAPAKTEGRSLESRAAPKHLHKTPEGWLKGLPGAFPAQLVCEVTGEHERRRHLRQNQRLLEAVGPSSGTPNAPPP”, the “soluble on expression in E. coli” value is “soluble”.

Consider “LQELSITNFAIIEHLDIAFEAGMTVLTGETGAGKSIIIDAVGLLAGGRGSAEFIRTGADKAVLQGMFILPADGVTAQLLDEAGIEHADNTVILQREITKSGRNTCRINGMLVNTTTLKQIGETIVDIHGQNEHQELMQPEKHLGLLDEFATA”, for which the “soluble on expression in E. coli” value is “not soluble”.

For the sequence “MGSDKIHHHHHHMEIIAHRGFWNKESEKNTLTAIKRAIDNGYGFETDYRDNNGTIVISHNMPLGNEPTAEEIFRLYRDSGTESTLALNIKADGLQELLKDMLNTYQIKKYFLFDMSIPDTIDYILDNMNIATRHSEYEKEFPFYSQSSYVWMDCFKSEWISWGNLEEHLKSGKKVCIVSPELHRRPYKEVWNKYASFNHANLMLCTDFPMEADFFFNK”, the “soluble on expression in E. coli” value was “not soluble”.
